Test system: MS2 coat protein
Test: apparent KD of MS2 coat protein; designed switch direction (-1 OFF switch, 1 ON switch): -1; higher = weaker reporter binding
Summary of the method: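 The buffer was Tris-HCl pH 7.5 with KCl, MgCl2, BSA, DTT, tRNA and Tween-20. In it, SNAP-549-labelled MS2 coat protein was titrated in doubling steps from 0.7 or 1.5 nM to 3 µM over chip-bound RNA switches transcribed by stalled E. coli RNA polymerase on Illumina chips. Apparent KD is the per-design median over clusters of curve fits to normalised fluorescence.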

[1] = input ligand: microRNA oligo, concentration not stated
[2] = Eterna round: R95, input ligand: FMN 200 uM
[3] = Eterna round: R95, input ligand: microRNA oligo, concentration not stated
[4] = Eterna round: R95, input ligand: none

Sequence | apparent KD of MS2 coat protein (input ligand: FMN 200 uM) [nM] | apparent KD of MS2 coat protein [1] [nM] | apparent KD of MS2 coat protein (input ligand: none) [nM] | apparent KD of MS2 coat protein [2] [nM] | apparent KD of MS2 coat protein [3] [nM] | apparent KD of MS2 coat protein [4] [nM]
GCACGAAGUGUAGGAUAUCUGUGCGAUUAGCUCAGAGAAGGACACAUGAGGAUCACCCAUGUGUUCCGCGGAAGCAAUACGUGC [Eli exng1 - 057] (Eterna round: R96, puzzle: Exclusion NG 1) | 10.7 | 9.73 | 13.3 |  |  | 
GCACGGAGUGUAGGAUAUCUGUGCGAUUAGCUCAGAGAAGGACACAUGAGGAUCACCCAUGUGUUCCACCGAAAGGUUCCGUGC [Eli exng1 - 048] (Eterna round: R96, puzzle: Exclusion NG 1) | 11 | 8.4 | 11.4 |  |  | 
GCACUGCGAGGAUAUACAUGAGGAUCACCCAUGUAUCGGUAGUCAAGGUUAAUUUAAGGUAGAAGGCGCGUAAA [JR_Ex3_Sub005] (Eterna round: R97, puzzle: Exclusion 3) | 27.4 |  | 23.5 |  |  | 
GCAGCAACUCUAAUCAAUCCAACAUGAGGAUCACCCAUGUCUCAGGAUAUGGUCUGGAUUACAGGCCAGAAGGGAGAAAGCUGC [Eli exng3 - 046] (Eterna round: R96, puzzle: Exclusion NG 3) | 9.07 | 7.62 | 11.9 |  |  | 
GCAGCAACUCUCACUAACUAAACAUGAGGAUCACCCAUGUCUCAGGAUAUGGUCUGGAUUACAGGCCAGAAGGGAGAAAGCUGC [Eli exng3 - 040] (Eterna round: R96, puzzle: Exclusion NG 3) | 9.73 | 10.6 | 13.1 |  |  | 
GCAGCAACUCUUACUAACUAAACAUGAGGAUCACCCAUGUCUCAGGAUAUGGUCUGGAUUACAGGCCAGAAGGGAGAAAGCUGC [Eli exng3 - 038] (Eterna round: R96, puzzle: Exclusion NG 3) | 15.6 | 11.2 | 16.9 |  |  | 
GCAGCAUAGAUUACUAGCUGUUACAUGAGGAUCACCCAUGUUCAGGAUAUGGUCUGGAUUACAGGCCAGAAGGGAACAAGCUGC [finally!] (Eterna round: R96, puzzle: Exclusion NG 3) | 14.2 | 12.9 | 16.6 |  |  | 
GCAGCAUAGUGUAAUAACACAAUACAUGAGGAUCACCCAUGUGAGGAUAUGGACUGGAUUACAGUCCAGAAGGCACAAAGCUGC [Zipper Style 2] (Eterna round: R96, puzzle: Exclusion NG 3) | 19.9 | 13.3 | 21.1 |  |  | 
GCAGCAUAGUUUACUAACUGUUACAUGAGGAUCACCCAUGUCUAGGAUAUGGUCUGGAUUACAGGCCAGAAGGAGAAAAGCUGC [Eli exng3 - 036] (Eterna round: R96, puzzle: Exclusion NG 3) | 15.3 | 13 | 16.8 |  |  | 
GCAGCAUAGUUUACUAACUGUUACAUGAGGAUCACCCAUGUUGAGGAUAUGGUCUGGAUUACAGGCCAGAAGGCGACAAGCUGC [Eli exng3 - 028] (Eterna round: R96, puzzle: Exclusion NG 3) | 18.1 | 13 | 16.9 |  |  | 
GCAGCAUAUGUAGGAUAUCUGCACGUUUAGUGCAGAGAAGGACAUGAGGAUCACCCAUGUAAUUAAGAUCAAUUAUUAAGCUGC [ENG1/4-A2] (Eterna round: R96, puzzle: Exclusion NG 1) | 42.5 | 17.2 | 26.2 |  |  | 
GCAGCAUUGUUUACUAACAGUUACAUGAGGAUCACCCAUGUUCAGGAUAUGGUCUGGAUUACAGGCCAGAAGGGAACAAGCUGC [Eli exng3 - 031] (Eterna round: R96, puzzle: Exclusion NG 3) | 9.09 | 9.39 | 15 |  |  | 
GCAGGAUAAGUCAGGAUAUACCUAUGGAUACAUAGGUAGAAGGGACAUGAGGAUCACCCAUGUGACUCACCUGC [Fiskers BMX 4 - 62] (puzzle: Brourd's mod of Exclusion 4) |  |  |  | 95.6 | 27.8 | 27
GCAGGAUAAGUGAGGAUAUACCUCUGGAUACAGAGGUAGAAGGCACAUGAGGAUCACCCAUGUUACUCACCUGC [Fiskers BMX 4 - 76] (puzzle: Brourd's mod of Exclusion 4) |  |  |  |  | 10.9 | 
GCAUGCUAUGUCAGGAUAUACCUGUGGAUACAUAGGUAGAAGGGACAUGAGGAUCACCCAUGUCCUAAUCAUGC [Fiskers BMX 4 - 24] (Eterna round: R96, puzzle: Brourd's mod of Exclusion 4) | 11.6 | 10 | 13.4 |  |  | 
GCAUGCUAUGUCAGGAUAUACCUGUGGAUACAUAGGUAGAAGGGACAUGAGGAUCACCCAUGUCCUAAUCAUGC [Fiskers BMX 4 - 24] (puzzle: Brourd's mod of Exclusion 4) |  |  |  |  | 12.1 | 
GCAUGGAGACAGGAUAUCCGCGCGAACAAAAUAGGAGAAGGGUCUACAUGAGGAUCACCCAUGUGACGGUAUCC [Aedenqu] (puzzle: Exclusion 6) |  |  |  | 62.2 | 21.7 | 27.2

Sequence | apparent KD of MS2 coat protein (input ligand: FMN 200 uM) [nM] | apparent KD of MS2 coat protein [1] [nM] | apparent KD of MS2 coat protein (input ligand: none) [nM] | apparent KD of MS2 coat protein [2] [nM] | apparent KD of MS2 coat protein [3] [nM] | apparent KD of MS2 coat protein [4] [nM]
GCAUGUUAUGUCAGGAUAUACCUAUGGAUACAUAGGUAGAAGGGACAUGAGGAUCACCCAUGUCCUAAUCAUGC [Fiskers BMX 4 - 23] (puzzle: Brourd's mod of Exclusion 4) |  |  |  |  | 12.5 | 
GCAUUGAGUGUGAGGAUAUGCUGGUCAUAAGAUCAGCAGAAGGCACAUGAGGAUCACCCAUGUGAAAACAAUGC [Mat - Exclusion 4 - JL Mod - D66] (puzzle: Brourd's mod of Exclusion 4) |  |  |  | 93.1 | 14.7 | 19.2
GCCAGAGCAGGAUAUUCAAUAUCACACAUGAGGAUCACCCAUGUCCGGCGAAAGCUGGAGGGAGAAGGGCUCUGGC [Fiskers Ex 5 - 14] (puzzle: Exclusion 5) |  |  |  |  | 49.4 | 
GCCAGAGCAGGAUAUUCAAUGUAUCACAUGAGGAUCACCCAUGUCCAGCGAAAGCUGGAGGGAGAAGGGCUCUGGC [Fiskers Ex 5 - 17] (puzzle: Exclusion 5) |  |  |  | 65.6 | 234 | 257
GCCAGGUGAUUCGGCCAUGACAUGAGGAUCACCCAUGUAACAAUCUAGCAAGCAAACAAGGCCGUCGUGUAGGUAUU [Rigeusarla] (Eterna round: R96, puzzle: Sensor v2, turn-off variant) | 78 | 61.1 | 76.7 |  |  | 
GCCCAGUUAGGAUAUACAUGUCACGUCCUAACGGUCGAAGGACAUGAGGAUCACCCAUGUAGAAGGGACCGGCA [Onraonbe] (Eterna round: R97, puzzle: Exclusion 2) | 17.7 |  | 21.2 |  |  | 
GCCCGGGCAGGAUAUACAAGCUAGUGCUGAAAAGUGCUAGUACAUGAGGAUCACCCAUGUAGAAGGGCCCGGGC [-37.6, -35.7 kcal, A 28% 2bis] (Eterna round: R97, puzzle: Exclusion 2) | 30.5 |  | 18.1 |  |  | 
GCCGAAAAAGUGAGGAUAUACCUAUGGAUACAUAGGUAGAAGGCACAUGAGGAUCACCCAUGUAUCCUAACGGC [Eli bmx4 4.28] (Eterna round: R97, puzzle: Brourd's mod of Exclusion 4) | 362 |  | 29 |  |  | 
GCCGAAAAUGAGAGGAUAUGCCUAUGGAUACGUAGGCAGAAGGCACAUGAGGAUCACCCAUGUUCCUCAACGGC [JL-BMX4-4.26 Eli mod] (Eterna round: R97, puzzle: Brourd's mod of Exclusion 4) | 19.4 |  | 14.6 |  |  | 
GCCGAAAGUGUGAGGAUAUACCUAUGGAUACAUAGGUAGAAGGCACAUGAGGAUCACCCAUGUGUCCAAACGGC [Eli bmx4 4.23] (Eterna round: R97, puzzle: Brourd's mod of Exclusion 4) | 54 |  | 21.7 |  |  | 
GCCGAUUAAGUCAGGAUAUACCUAUGGAUACAUAGGUAGAAGGGACAUGAGGAUCACCCAUGUUCCUCAGCGGC [Fiskers BMX 4 - 14] (puzzle: Brourd's mod of Exclusion 4) |  |  |  |  | 14.5 | 
GCCGGAUUUGUGAGGAUAUGCCUAUGGAUACAUAGGCAGAAGGCACAUGAGGAUCACCCAUGUUCCUCACCGGC [JL-BMX4-4.24 Eli mod] (Eterna round: R97, puzzle: Brourd's mod of Exclusion 4) | 232 |  | 29.8 |  |  | 
GCCGGGCGUGUAGGAUAUGGCCGGCGGUGCCGGCCAGAAGGACAUGAGGAUCACCCAUGUGCCGGCCUUGGGCCGGCGCCCGGC [-51, -48 kcal and 14% A] (Eterna round: R96, puzzle: Exclusion NG 1) | 14.9 | 8.09 | 13.3 |  |  | 
GCCGGUCAUGUAGGAUAUGGCCGGCGGUGCCGGCCAGAAGGACAUGAGGAUCACCCAUGUGCCGGCCUUUGGCCGGCGCCCGGC (Eterna round: R96, puzzle: Exclusion NG 1) | 8.65 | 11.2 | 18.6 |  |  | 
GCCGUGCAAGGAUAUCGCGGAAAGAACAUGAGGAUCACCCAUGUGAUCACCUUCUAAAUGCGAGAAGGUGCUAAAA [Axebied] (puzzle: Exclusion 5) |  |  |  | 75.7 | 56 | 81.4
GCCUCACAUGAGGAUCACCCAUGUCAGGAUAUAGGAGACGGCAGAAAUCCUGCCAUCGCUAGAAGGGACUGGCA [Tirebi] (Eterna round: R96, puzzle: Exclusion 1) | 138 | 50.6 | 67 |  |  | 
